In article PMC9189065 (Cell, 2022):

What was measured:
mouse METAP1(1-79) = mouse METAP1(1-79) (mouse, UniProt Q8BP48 1-79); test: other fluorescence titration
mouse METAP1(1-59) = mouse METAP1(1-59) (mouse, UniProt Q8BP48 1-59); test: other fluorescence titration
[1] = target: zebrafish MBP-Metap1, full length (zebrafish, UniProt Q4QRK0 1-386); test: pull-down

Binder: Ac-EEDPAEEDCPELVPIETTQSE-NH2 [human ZNG1 N-terminal peptide, synthetic]
- Kd (mouse METAP1(1-79)): ~100 nM
- stoichiometry N (mouse METAP1(1-79)): 1
- Kd (mouse METAP1(1-59)): ~100 nM
- stoichiometry N (mouse METAP1(1-59)): 1

Binder: Ac-MEDEDECPELVPIKEKPSG-NH2 [zebrafish Zng1 N-terminal peptide, synthetic]
- Kd (mouse METAP1(1-79)): ~100 nM
- stoichiometry N (mouse METAP1(1-79)): 1
- Kd (mouse METAP1(1-59)): ~100 nM
- stoichiometry N (mouse METAP1(1-59)): 1

B1: zebrafish Zng1, full length, purified (natural protein)
chain: not shown
- binding result [1]: binds
